Laboratory results reported in patent publication US20190241662A1 (ADAGENE, published 2019).

Tests used:
[1] = target: T1, full-length human CTLA4 expressed on cells (human, UniProt P16410 36-223); test: cell-based or functional assay
T1 sequence (looked up): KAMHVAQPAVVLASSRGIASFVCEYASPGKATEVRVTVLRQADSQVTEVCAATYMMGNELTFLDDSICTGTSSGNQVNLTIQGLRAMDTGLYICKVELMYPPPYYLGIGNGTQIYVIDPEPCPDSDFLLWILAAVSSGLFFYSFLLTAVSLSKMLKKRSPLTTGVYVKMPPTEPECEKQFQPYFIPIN

[2] = target: T1, full-length human CTLA4 expressed on …; test: cell-based or functional assay; remark: listed apart in the source
[3] = target: T2, human PD1 on HEK293F cells (human, UniProt Q15116 25-288); test: flow cytometry, transfected HEK293F cells
T2 construct: whole, on cells
T2 sequence (Q15116 25-288): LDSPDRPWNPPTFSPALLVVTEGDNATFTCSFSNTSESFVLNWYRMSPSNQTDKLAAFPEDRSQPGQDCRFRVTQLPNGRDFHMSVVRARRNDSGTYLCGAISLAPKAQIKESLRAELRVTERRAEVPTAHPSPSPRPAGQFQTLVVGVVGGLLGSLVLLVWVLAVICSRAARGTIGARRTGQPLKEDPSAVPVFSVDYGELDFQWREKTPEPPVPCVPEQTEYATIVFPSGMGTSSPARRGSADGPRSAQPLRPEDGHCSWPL
Procedure: (§1) Antibody selectivity was next examined. Human CTLA4, PD1, LAG3, Tim3, B7H3, CD95, TNFR1, OX40, CD40, PD-L1, BLTA, VISTA, PDL2, ICOS and B7H4 were transiently overexpressed on the surface of HEK293F cells. Transfected cells were washed in pre-chilled 1×PBSA buffer (1.76 mM KH2PO4, 10.14 mM Na2HPO4.12H2O, 2.68 mM KCl, 136.89 mM NaCl and 1% BSA), then incubated with 100 nM test antibodies for 1 hour on ice. Cells were washed once with staining buffer, and Alexa Fluor® 647 conjugated mouse anti-human FC antibodies were added and incubated for 30 minutes on ice, protected from light. Samples were washed once with staining buffer prior to analysis by flow cytometry.

[4] = target: T3, human LAG3 on HEK293F cells (human, UniProt P18627 23-525); test: flow cytometry, transfected HEK293F cells
T3 construct: whole, on cells
T3 sequence (looked up): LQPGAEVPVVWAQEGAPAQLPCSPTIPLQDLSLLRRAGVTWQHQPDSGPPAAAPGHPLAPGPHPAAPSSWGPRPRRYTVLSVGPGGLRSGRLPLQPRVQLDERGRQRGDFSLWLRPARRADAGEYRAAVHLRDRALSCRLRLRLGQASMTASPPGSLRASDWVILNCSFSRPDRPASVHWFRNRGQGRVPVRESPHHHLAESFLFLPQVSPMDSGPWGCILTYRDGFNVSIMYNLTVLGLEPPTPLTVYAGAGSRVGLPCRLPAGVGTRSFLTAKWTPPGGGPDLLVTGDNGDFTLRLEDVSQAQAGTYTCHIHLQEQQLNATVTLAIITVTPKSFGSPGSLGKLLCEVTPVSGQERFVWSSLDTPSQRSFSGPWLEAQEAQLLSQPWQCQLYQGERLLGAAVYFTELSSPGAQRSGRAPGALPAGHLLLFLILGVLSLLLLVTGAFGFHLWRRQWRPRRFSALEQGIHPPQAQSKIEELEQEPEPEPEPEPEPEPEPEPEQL
Procedure: as §1

[5] = target: T4, recombinant human CTLA4 fused with human Fc and His tag (human, UniProt P16410 36-162, limits assumed); test: competition ELISA: plate-bound human CD86-Fc, biotinylated human CTLA4-Fc-His in solution
T4 construct: Coated in the CD80 ELISA, biotinylated and in solution in the CD86 ELISA; also called biotinylated human CTLA4 fused with human FC and His tag
T4 sequence (looked up): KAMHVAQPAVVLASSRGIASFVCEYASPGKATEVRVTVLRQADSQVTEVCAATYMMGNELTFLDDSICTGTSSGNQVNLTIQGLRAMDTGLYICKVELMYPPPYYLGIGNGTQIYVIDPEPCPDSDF
Procedure: Plates were blocked with PBS supplemented with 2% (w/v) skim milk at 37° C. for 1 hour. […] Plates were washed four times, and 100 μL HRP-neutravidin (1:1000) were added to each well and incubated at 37° C. for 1 hr. Plates were washed as previously described, and 50 μL TMB substrate solution was added and incubated at room temperature for 5 minutes before the reaction was stopped by 50 μL sulfate acid (2M).

[6] = target: T1, full-length human CTLA4 expressed on …; test: flow cytometry blocking: HEK293F cells with human CTLA4, 100 nM antibody, then 100 nM CD86-Fc-Bio (blocked ligand); PBSA panel: Mean 10678, 12.2%
Procedure: (§2) Antibodies were also tested for their ability to block binding of CTLA4 to its cognate ligands CD80 and CD86 by flow cytometry. The plasmid encoding full-length human CTLA4 was transiently expressed in HEK293F cells. Cells were washed with staining buffer (PBSA buffer including 1.76 mM KH₂PO₄, 10.14 mM Na₂HPO₄.12H₂O, 2.68 mM KCl, 136.89 mM NaCl and 1% BSA), and resuspended in staining buffer containing 100 nM test antibodies. […] Cells were washed once, and analyzed by CytoFlex flow cytometry.

[7] = target: T1, full-length human CTLA4 expressed on …; test: flow cytometry blocking: HEK293F cells with human CTLA4, 100 nM antibody, then 100 nM CD80-Fc-Bio (blocked ligand); PBSA panel: Mean 157692, 26.3%
Procedure: as §2

[8] = target: T5, human B7H3 on HEK293F cells (human, UniProt Q5ZPR3 29-534); test: flow cytometry, transfected HEK293F cells [Cont.]
T5 construct: whole, on cells
T5 sequence (looked up): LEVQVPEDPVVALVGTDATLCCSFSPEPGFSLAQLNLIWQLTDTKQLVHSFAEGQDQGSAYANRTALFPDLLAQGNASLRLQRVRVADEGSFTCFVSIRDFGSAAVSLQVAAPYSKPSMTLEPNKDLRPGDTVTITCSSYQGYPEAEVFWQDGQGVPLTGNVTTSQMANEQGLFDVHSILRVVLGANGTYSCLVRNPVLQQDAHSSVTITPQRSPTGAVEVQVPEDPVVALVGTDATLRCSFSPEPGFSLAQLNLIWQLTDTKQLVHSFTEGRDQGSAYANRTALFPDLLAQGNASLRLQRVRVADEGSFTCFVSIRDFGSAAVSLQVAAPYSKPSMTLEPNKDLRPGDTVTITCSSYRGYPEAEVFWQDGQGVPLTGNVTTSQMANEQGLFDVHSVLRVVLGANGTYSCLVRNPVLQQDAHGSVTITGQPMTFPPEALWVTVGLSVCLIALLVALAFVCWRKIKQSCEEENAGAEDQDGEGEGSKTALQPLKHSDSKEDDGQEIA
Procedure: as §1

Binder | EC50 for TCR/CD28 pathway activation (luciferase reporter, CTLA4 blockade bioassay) [1] [µg/mL] | EC50 for ADCC reporter signaling (Jurkat/NFAT-Luc/CD16 with HEK293F/hCTLA4 cells) [2] [µg/mL] | binding result [3] | binding result [4] | IC50 (read off the curve) [5] [nM] | % of cells in upper right quadrant (CD86-positive) in the presence of the antibody [6] [%] | Mean of the CD86 binding signal in the presence of the antibody [6] | % of cells in upper right quadrant (CD80-positive) in the presence of the antibody [7] [%] | Mean of the CD80 binding signal in the presence of the antibody [7] | binding result [8]
TY21691 (antibody, V domains shown, human IgG1 (hIgG1) from Fab hit B15736) VH: EVQLVESGGGLVQPGGSLRLSCAASGFTFSDYAIHWVRQAPGKGLEWIGIISPSGGSTKYAQKFQGRVTISRDNSKNTLYLQLNSLRAEDTAVYYCARLGYGYFDVWGQGTLVTVSS VL: DIQLTQSPSSLSASVGDRVTITCRASQSVDFYGISFLHWYQQKPGKAPKLLIYDASSLESGVPSRFSGSGSGTDFTLTISSLQPEDFATYYCVQALQLPLTFGQGTKVEIK | 2.64 | > 10 | no binding (tested: 100 nM) | no binding (tested: 100 nM) | ~20 | – | – | – | – | –
TY21591 (antibody, V domains shown, human IgG1 (hIgG1) from Fab hit B15756) VH: EVQLVESGGGLVQPGGSLRLSCAASGFSLSTGGVAVSWIRQAPGKGLEWIGEIYHSGSTYYSPSLKSRVTISRDNSKNTLYLQLNSLRAEDTAVYYCARRIATATYFDYWGQGTLVTVSS VL: DIQLTQSPSSLSASVGDRVTITCRASQTVFSRYLAWYQQKPGKAPKLLIYDASNRATGIPSRFSGSGSGTDFTLTISSLQPEDFATYYCQQSYYWPPWTFGQGTKVEIK | – | – | – | – | – | 0.61 | 4960 | 24.9 | 68500 | –
TY21687 (antibody, V domains shown, human IgG1 (hIgG1) from Fab hit B15700) VH: EVQLVESGGGLVQPGGSLRLSCAASGFTFSGYAIHWVRQAPGKGLEWIGIISPSGGGTKYAQKFQGRVTISRDNSKNTLYLQLNSLRAEDTAVYYCARHPFAYWGQGTLVTVSS VL: DIQLTQSPSSLSASVGDRVTITCRASQSVDFYGISFLDWYQQKPGKAPKLLIYDASNRATGIPSRFSGSGSGTDFTLTISSLQPEDFATYYCQQYVSSPPEYTFGQGTKVEIK | 5.01 | 9.5 | – | – | ~10 | – | – | – | – | no binding (tested: 100 nM)
TY21585 (antibody, V domains shown, human IgG1 (hIgG1) from Fab hit B15709) VH: EVQLVESGGGLVQPGGSLRLSCAASGFTFSDYAIHWVRQAPGKGLEWIGIISPSSGSTNYAQKFQGRVTISRDNSKNTLYLQLNSLRAEDTAVYYCARDIHSGSSGYYYGFDVWGQGTLVTVSS VL: DIQLTQSPSSLSASVGDRVTITCRASESVDFFGISFLAWYQQKPGKAPKLLIYDASNRATGIPSRFSGSGSGTDFTLTISSLQPEDFATYYCQHYTSSPPVYTFGQGTKVEIK | – | – | no binding (tested: 100 nM) | no binding (tested: 100 nM) | – | 3.43 | 5140 | 22.5 | 83700 | no binding (tested: 100 nM)
